Laboratory results: patent US20170081400A1 (CEPHALON, published 2017)
Where a chain is given by its changes, count along the chain named.

T1: human TL1A extracellular domain with N-terminal HIS and FLAG tag (human, UniProt O95150 72-251)
T1 construct: whole entry named. ~70 kDa fraction purified by gel filtration
T1 sequence: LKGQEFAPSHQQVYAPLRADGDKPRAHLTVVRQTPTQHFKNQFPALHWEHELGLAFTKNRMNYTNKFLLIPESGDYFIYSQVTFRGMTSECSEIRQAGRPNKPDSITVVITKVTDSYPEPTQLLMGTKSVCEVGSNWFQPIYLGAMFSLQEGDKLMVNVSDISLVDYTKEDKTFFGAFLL

T2: human TL1A extracellular domain with N-terminal HIS and FLAG tag (human, UniProt O95150 72-251)
T2 construct: the whole entry is named; also called TNFSF15
T2 sequence: T1 sequence

B1: 320-192 (antibody, human IgG1, name in Kabat numbering, V domains shown)
VH: QVQLVQSGAEVKKPGASVKVSCKASGYTFTSYDINWVRQAPGQGLEWMGWLNPNSGNTGYAQKFQGRVTMTADRSTSTAYMELSSLRSEDTAVYYCAREVPETAAFEYWGQGTLVTVSS
VL: QSVLTQPPSVSGAPGQRVTISCASSSSDIGAGLGVHWYQQLPGTAPKLLIEGYYNRPSGVPDRFSGSKSGTSASLTITGLLPEDEGDYYCQSYDGTLSALFGGGTKLTVLG
notes: human IgG1, lambda
B2: 320-195 (antibody, human IgG1, name in Kabat numbering, V domains shown)
VH: B1 VH
VL: B1 VL with A23D
notes: human IgG1, lambda
B3: 320-196 (antibody, human IgG1, name in Kabat numbering, V domains shown)
VH: B1 VH
VL: B1 VL with A23H
notes: human IgG1, lambda
B4: 320-200 (antibody, human IgG1, name in Kabat numbering, V domains shown)
VH: B1 VH
VL: B1 VL with A23Y
notes: human IgG1, lambda
B5: 320-204 (antibody, human IgG1, name in Kabat numbering, V domains shown)
VH: B1 VH
VL: B1 VL with A23T, S24H
notes: human IgG1, lambda
B6: 320-206 (antibody, human IgG1, name in Kabat numbering, V domains shown)
VH: B1 VH
VL: B1 VL with A23T, S24L
notes: human IgG1, lambda
B7: 320-208 (antibody, human IgG1, name in Kabat numbering, V domains shown)
VH: B1 VH
VL: B1 VL with A23T, S24Y
notes: human IgG1, lambda
B8: 320-210 (antibody, human IgG1, name in Kabat numbering, V domains shown)
VH: B1 VH
VL: B1 VL with A23T, S25Q
notes: human IgG1, lambda
B9: 320-212 (antibody, human IgG1, name in Kabat numbering, V domains shown)
VH: B1 VH
VL: B1 VL with A23T, S25H
notes: human IgG1, lambda
B10: 320-561 (antibody, human IgG1, name in Kabat numbering, V domains shown)
VH: B1 VH with G59H
VL: B1 VL with A23T
notes: full-length human IgG1, lambda
B11: 320-564 (antibody, human IgG1, name in Kabat numbering, V domains shown)
VH: B1 VH with G59W
VL: B1 VL with A23T
notes: as for B10
B12: 320-565 (antibody, human IgG1, name in Kabat numbering, V domains shown)
VH: B1 VH with G59Y
VL: B1 VL with A23T
notes: as for B10
B13: 320-566 (antibody, human IgG1, name in Kabat numbering, V domains shown)
VH: B1 VH with Y60A
VL: B1 VL with A23T
notes: as for B10
B14: 320-567 (antibody, human IgG1, name in Kabat numbering, V domains shown)
VH: B1 VH with Y60S
VL: B1 VL with A23T
notes: as for B10
B15: 320-568 (antibody, human IgG1, name in Kabat numbering, V domains shown)
VH: B1 VH with Y60Q
VL: B1 VL with A23T
notes: as for B10
B16: 320-569 (antibody, human IgG1, name in Kabat numbering, V domains shown)
VH: B1 VH with Y60D
VL: B1 VL with A23T
notes: as for B10
B17: 320-570 (antibody, human IgG1, name in Kabat numbering, V domains shown)
VH: B1 VH with Y60H
VL: B1 VL with A23T
notes: as for B10
B18: 320-571 (antibody, human IgG1, name in Kabat numbering, V domains shown)
VH: B1 VH with Y60K
VL: B1 VL with A23T
notes: as for B10
B19: 320-572 (antibody, human IgG1, name in Kabat numbering, V domains shown)
VH: B1 VH with A61S
VL: B1 VL with A23T
notes: as for B10
B20: 320-573 (antibody, human IgG1, name in Kabat numbering, V domains shown)
VH: B1 VH with A61Q
VL: B1 VL with A23T
notes: as for B10
B21: 320-574 (antibody, human IgG1, name in Kabat numbering, V domains shown)
VH: B1 VH with A61D
VL: B1 VL with A23T
notes: as for B10
B22: 320-575 (antibody, human IgG1, name in Kabat numbering, V domains shown)
VH: B1 VH with A61H
VL: B1 VL with A23T
notes: as for B10
B23: 320-576 (antibody, human IgG1, name in Kabat numbering, V domains shown)
VH: B1 VH with A61K
VL: B1 VL with A23T
notes: as for B10
B24: 320-577 (antibody, human IgG1, name in Kabat numbering, V domains shown)
VH: B1 VH with L51A
VL: B1 VL with A23T
notes: as for B10
B25: 320-578 (antibody, human IgG1, name in Kabat numbering, V domains shown)
VH: B1 VH with L51Y
VL: B1 VL with A23T
notes: as for B10
B26: 320-579 (antibody, human IgG1, name in Kabat numbering, V domains shown)
VH: B1 VH with N52L
VL: B1 VL with A23T
notes: as for B10
B27: 320-580 (antibody, human IgG1, name in Kabat numbering, V domains shown)
VH: B1 VH with G56Y
VL: B1 VL with A23T
notes: as for B10
B28: 320-581 (antibody, human IgG1, name in Kabat numbering, V domains shown)
VH: B1 VH with Y60L
VL: B1 VL with A23T
notes: as for B10
B29: 320-582 (antibody, human IgG1, name in Kabat numbering, V domains shown)
VH: B1 VH with Y60W
VL: B1 VL with A23T
notes: as for B10

Key:
[1] = target: T1, human TL1A extracellular domain with …; experiment: SPR run 2; supernatant on Protein A; TL1A 10 ug/mL; timepoint 44
Source text: (§1) 1.5. Antibody expression and antigen binding as determined by SPR. Using a CM5 sensor chip (GE Healthcare) Protein A (Pierce) was coupled to the chip surface using an amine coupling kit (GE Healthcare). Protein A was coupled on flow cell 1 and 2 (or alternatively 3 and 4) using a BIACORE® T200. […] The amount of supernatant or purified protein (as well as the concentration) injected during the capture stage varied between runs and is specified in the header of the Tables 3-11. At the end of injection of the supernatant or purified antibody the change in response units was measured. This value was reported as Capture Level in Tables 3-11. […] The response units were measured prior to the end of the dissociation phase. […] The sensorgrams were double referenced (flow cell 2 is subtracted from flow cell 1 and a buffer blank). As there were a large number of antibody variants to screen, these were screened across different runs (Tables 3-11). […] A summary of the conditions used in each run is below:
(§2) 2.1. […] In some experiment the antibodies were purified using Protein A chromatography (See 1.4) and purified antibodies were used in BIACORE® (GE Healthcare) experiments.

[2] = target: T1, human TL1A extracellular domain with …; experiment: SPR run 2; supernatant on Protein A; TL1A 10 ug/mL; timepoint 220
Source text: as §1, §2

[3] = target: T2, human TL1A extracellular domain with …; experiment: SPR Run 7, antibody on Protein A, TL1A 5 ug/mL, timepoint 44
Summary of the method: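 Biacore T200 SPR with antibody (supernatant or Protein A-purified) captured on Protein A amine-coupled to a CM5 chip; capture level recorded as response change at end of capture.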

[4] = target: T2, human TL1A extracellular domain with …; experiment: SPR Run 7, antibody on Protein A, TL1A 5 ug/mL, timepoint 220
Summary of the method: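 Double-referenced sensorgrams (reference flow cell and buffer blank subtracted) provided the late-dissociation response for antibodies held by chip-bound Protein A. These antibodies came either as expression supernatant or as Protein A-purified material. The capture amount differed per run and was measured as the RU increase after loading.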

| Binder | TL1A Binding Level (Early) [1] | TL1A Binding Level (Late) [2] | TL1A Binding Level (Early) [3] | TL1A Binding Level (Late) [4] |
| --- | --- | --- | --- | --- |
| B1 | 238 RU | 218 RU | – | – |
| B2 | 249 RU | 227 RU | – | – |
| B3 | 250 RU | 228 RU | – | – |
| B4 | 251 RU | 231 RU | – | – |
| B5 | 193 RU | 155 RU | – | – |
| B6 | 257 RU | 235 RU | – | – |
| B7 | 222 RU | 199 RU | – | – |
| B8 | 225 RU | 202 RU | – | – |
| B9 | 226 RU | 205 RU | – | – |
| B10 | – | – | 14 RU | 6 RU |
| B11 | – | – | 72 RU | 67 RU |
| B12 | – | – | 43 RU | 12 RU |
| B13 | – | – | 120 RU | 110 RU |
| B14 | – | – | 96 RU | 86 RU |
| B15 | – | – | 115 RU | 107 RU |
| B16 | – | – | 79 RU | 73 RU |
| B17 | – | – | 79 RU | 72 RU |
| B18 | – | – | 78 RU | 72 RU |
| B19 | – | – | 98 RU | 90 RU |
| B20 | – | – | 67 RU | 62 RU |
| B21 | – | – | 140 RU | 130 RU |
| B22 | – | – | 121 RU | 110 RU |
| B23 | – | – | 90 RU | 83 RU |
| B24 | – | – | 98 RU | 90 RU |
| B25 | – | – | 83 RU | 77 RU |
| B26 | – | – | 46 RU | 41 RU |
| B27 | – | – | 51 RU | 47 RU |
| B28 | – | – | 70 RU | 65 RU |
| B29 | – | – | 67 RU | 52 RU |
